Our source for the ImmunoCAP kUA/L, percent of total peanut binding serum IgE blocked and percent of serum Ara h 6-specific IgE blocked values is patent US20240254209A1.

Where “and” joins values, the source holds several entries; their conditions need not be identical. Identical values can stand only once.

T1: peanut allergen Ara h 1 (peanut (Arachis hypogaea)) (UniProt P43238)
T1 sequence (looked up): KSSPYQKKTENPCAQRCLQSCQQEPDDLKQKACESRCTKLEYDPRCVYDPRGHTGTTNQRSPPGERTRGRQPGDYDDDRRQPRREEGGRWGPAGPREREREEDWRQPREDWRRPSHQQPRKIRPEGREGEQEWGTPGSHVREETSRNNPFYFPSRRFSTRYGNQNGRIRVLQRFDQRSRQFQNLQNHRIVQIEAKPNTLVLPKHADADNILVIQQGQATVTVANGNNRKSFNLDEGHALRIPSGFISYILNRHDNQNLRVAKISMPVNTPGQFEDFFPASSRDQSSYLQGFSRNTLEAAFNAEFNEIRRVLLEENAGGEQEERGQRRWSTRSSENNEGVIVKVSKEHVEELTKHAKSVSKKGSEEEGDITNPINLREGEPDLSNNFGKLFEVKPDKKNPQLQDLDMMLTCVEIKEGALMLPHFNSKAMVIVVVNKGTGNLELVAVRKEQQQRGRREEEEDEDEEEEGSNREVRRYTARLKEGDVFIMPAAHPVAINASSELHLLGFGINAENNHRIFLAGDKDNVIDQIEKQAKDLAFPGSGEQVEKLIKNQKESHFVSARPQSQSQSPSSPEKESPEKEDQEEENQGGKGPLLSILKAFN

T2: peanut allergen Ara h 2 (peanut (Arachis hypogaea)) (UniProt Q6PSU2)
T2 sequence (looked up): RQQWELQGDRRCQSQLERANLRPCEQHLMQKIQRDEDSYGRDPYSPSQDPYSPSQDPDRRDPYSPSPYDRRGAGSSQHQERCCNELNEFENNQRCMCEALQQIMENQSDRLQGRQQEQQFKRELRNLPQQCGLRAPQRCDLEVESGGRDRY

T3: peanut allergen Ara h 6 (peanut (Arachis hypogaea)) (UniProt Q647G9)
T3 sequence (looked up): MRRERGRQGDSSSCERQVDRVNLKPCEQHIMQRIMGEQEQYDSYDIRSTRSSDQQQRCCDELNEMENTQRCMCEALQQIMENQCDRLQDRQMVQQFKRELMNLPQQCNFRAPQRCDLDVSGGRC

B1: human IgE mAb 7B6 (antibody, V domains shown)
VH: QVQLQQWGAGLLKPSETLSLTCAVYGGSFNGYYWSWIRQPPGKGLEWIGEIDHSGSTNYNSSLKSRVTISVDTSKNQFSLKLSSVTAADTAVYYCARRRIGSLLKYFQDWGQGTLVTVSS
VL: SYELTQPPSVSVSPGQTASITCSGDKLGDSYVCWYQLKPGQSPVLVIYQDTKRPSGIPERFSGSNSGNTATLTISETQAMDEADYYCQAWDTTTDWVFGGGTKLTVL
B2: human IgE mAb 38B7 (antibody, V domains shown)
VH: QVQLVESGGGVVQPGRSLRLSCVGSGFTFRRDAKYWVRQAPGKGLEWVAAISHDGGEEDYAESVKGRFTISRDNSRETVYLEMNSLRPEDTAVYYCATTRSGWYFDYWGQGALVTVSS
VL: EIVLTQSPATLSLSPGARATLSCRASQSVDTYLAWYQQRRGQSPRLLIYDASKRATGIPARFSGSGSGTDFTLTISSLEPEDFAVYYCQQRNNWRTWTFGQGTKVEIN
B3: human IgE mAb 3C3 (antibody, V domains shown)
VH: QLQLQESGPGLVKPSETLSLTCSISGASINSDDYYWGWIRQAPGEALEWIASIDASGTTFYNPSLRSRVTISVDTSTNQISLRLNSVTAADTAIYYCARRKTYYDFLTDYYNWYFDVWGRGTLVTVSS
VL: QSALTQPRSVSGSPGQSVTFSCTGINSDIRDYDYVSWYQQHPGEAPKLIIYDVTKRASGVPSRFSGSKSGNTASLTISGLQAEDEADYYCCSYSVTYSFEVFGTGTQVSVL
B4: human IgE mAb 26A5 (antibody, V domains shown)
VH: QVQLVQSGSELRKPGASVKVSCKASGYTFTKYGMNWVRQAPGQGLEWMGWINTNTAKPTYAQDFTGRFVFSLDTSVNTAYLEISGLKAEDTAVYYCATDGSEGSWGQGTLVTVSS
VL: DIQMTQSPSTLSASVGDRVTITCRASQSIGTWLAWHQQKPGTAPKVLIYKASNLKSGVPSRFSGSGSGTDFTLTISSLQPDDVATYYCQQYNTYSGTFGQGTRVEIK
B5: human IgE mAb 21C10 (antibody, V domains shown)
VH: EVQLVESGGGLVKPGGSLRLSCAASGFILSRSSMSWVRQAPGKGLEWVSYISSTSSHIYYADSLKGRFTISRDNTENSVYLQMSSLRAEDTGVYYCARKTNGAWFLDLWGRGTLVTVSS
VL: QSVLTQPPSVSGAPGQRVTISCTGSSSNIGAGSDVHWYQQFPGSAPHVLIYGNNQRPSGVPDRFSASKSGTSASLAITGLQADDEADYYCQSYDYDLSGSWVFGGGTKLTVL
B6: human IgE mAb 3B7 (antibody, V domains shown)
VH: QVQLVQSGSELKKPGASMKVSCKASGYTFTNYAMNWVRQAPGQGLEWMGWINTNTGKPTYAQGFTGRFVFSLDTSVSMAYLQISSLEAGDTAVYFCARGESLAALGSFAYWGQGTLVTVSS
VL: DIQMTQSPSSLSASVGDRVTITCRASQSINSYLAWYQQKPGKAPNLLIYAASNLQSGVPSRFSGSGSGTDFTLTISSLQPEDFATYYCQQSSSTFWTFGQGTKVEIK
B7: human IgE mAb 15A7 (antibody, V domains shown)
VH: QVQLVQSGPEVRKPGASVKVSCKTSGYMFTDYEMNWVRQAPGQGLEWMGLINPHSGDTGYAQKFQGRVSMTSDTSTRTFYLELTGLTSEDTAVYYCARSQGTFEVYYFVSWGQGSLVTVSS
VL: SYVLTQPPSVSVAPGKTASITCGAKNIATKRVHWYRQKPGQAPVVVVSDEEDRSSVIPERFSGSKSGDTATLEISRVEAGDEADYYCQVWDSLADQVVFGGGTKVTVL
B8: human IgE mAb 2C9 (antibody, V domains shown)
VH: QVQLVESGGGLVKPGGSLRLSCAASGFSFSDFYMSWIRQAPGKGLECISYMSSSGGNIYYADSVKGRFTISRDNAKNSLSLQMNSLRADDTALYYCARRRYGSGSSIFDYWSQGTLVTVSS
VL: SYELTQPPSVSVSPGQTASVTCSGDTLGDRYVSWYQQKAGQSPVLVIYQSGQRPSGIPERFSGSNSGNTATLSISETQALDEADYYCLTWDRGTPVFGPGTTVTVV
B9: Ara h 6-specific blocking IgG mAb 1H9 (antibody, V domains shown)
VH: B4 VH
VL: B4 VL
B10: Ara h 6-specific blocking IgG mAb 8F3 (antibody, V domains shown)
VH: QLQLQESGPGLVKPSETLSLTCTVSDASIDTPSYFWSWIRQPPGKGLEWIGSIYYTGNKYSNPSLKSRVTMSVDTPKRQFSLRLSSVTAADTAVYYCARYVDYVWLRAFDIWGQGTRVTVSS
VL: EIVLTQSPATLSLSPGERATLSCRASPSAGRFLAWYQQRPGQAPRLLIYDASKRATDTPARFSGSGSGTDFNLTIASLEPEDFAVYYCQHRSNWPLTFGGGTKVEIK

One test addresses T1, peanut allergen Ara h 1 (peanut (Arachis hypogaea)). As to the kind of experiment: ImmunoCAP, hybridoma supernatant.
B1: the ImmunoCAP kUA/L amounted to 0.19 kUA/L.
On the same count and under the same terms, the result for B2 reads 0.11 kUA/L.
On the same count and under the same terms, as for B3, the figure is 0.6 kUA/L; as for B4, 0.15 kUA/L; as for B5, 0.36 kUA/L.
As to B6, the ImmunoCAP kUA/L came out at 0.3 kUA/L.

The target in another test is T2, peanut allergen Ara h 2 (peanut (Arachis hypogaea)). As to the kind of experiment: ImmunoCAP, hybridoma supernatant.
B1 had an ImmunoCAP kUA/L of 0.41 kUA/L.
Still for that read-out and setting: the result for B2 reads 203 kUA/L.
The molecule B3 showed an ImmunoCAP kUA/L of 0.85 kUA/L.
The same measure, in the same setting: as for B4, the figure is 0.46 kUA/L; as for B5, 0.46 kUA/L; as for B6, 0.63 kUA/L.
On the same count and under the same terms, the result for B7 reads 25.8 kUA/L; that for B8, 0.13 kUA/L.

In a further test the target is peanut extract (peanut ImmunoCAP F13). As to the kind of experiment: ImmunoCAP, hybridoma supernatant.
Regarding B1, the ImmunoCAP kUA/L came to 420 kUA/L.
For B2, the ImmunoCAP kUA/L was determined as 286 kUA/L.
Molecule B3 gave an ImmunoCAP kUA/L of 3140 kUA/L.
Still for that read-out and setting: the result for B4 reads 783 kUA/L; that for B5, 715 kUA/L.
On the same count and under the same terms, the result for B6 reads 1500 kUA/L; that for B7, 14 kUA/L; that for B8, 21.4 kUA/L.

For another test the target is unchanged. The test is described as follows: peanut ImmunoCAP serum blocking; competitor: serum IgE of peanut allergic subjects.
Take B9: the percent of total peanut binding serum IgE blocked is 20% and 25%.
Turning to B10, the percent of total peanut binding serum IgE blocked is 20% and 25%.

Another test concerns the target T3, peanut allergen Ara h 6 (peanut (Arachis hypogaea)). As to the kind of experiment: Ara h 6 ImmunoCAP serum blocking; competitor: serum IgE of peanut allergic subjects.
Turning to B9, the percent of serum Ara h 6-specific IgE blocked amounted to 50%.
On the same count and under the same terms, as for B10, the figure is 50%.
